Biological target: VEEV p62-E1 (Venezuelan equine encephalitis virus, TrD strain) (UniProt P09592)
Test: surface plasmon resonance (Biacore T200), […]

HRV-cleaved monovalent LDLRAD3(D1) (from UniProt A2AR95 18-70) (receptor)
Kd: 209 nM

Reference: patent publication US20230183338A1
